The target of this assay is E. coli β-clamp labeled with OregonGreen488 (E. coli β-clamp^OG) (E. coli), P0A988. Kind of assay: other fluorescence titration; OregonGreen488-labeled β-clamp (50 or 100 nM in the methods, 90 nM in the legend) titrated with the partner protein; 20 mM Tris-Cl pH 7.5, 8 mM MgCl2, 1 mM DTT, 0.2 mM EDTA, 50 mM NaCl, 0.5 mM ATP, 22°C; emission at 510 nm; apparent Kd. To be noted: remark: other sources report otherwise.
Chain of E. coli β-clamp labeled with OregonGreen488 (E. coli β-clamp^OG) (E. coli), P0A988 (P0A988 whole entry): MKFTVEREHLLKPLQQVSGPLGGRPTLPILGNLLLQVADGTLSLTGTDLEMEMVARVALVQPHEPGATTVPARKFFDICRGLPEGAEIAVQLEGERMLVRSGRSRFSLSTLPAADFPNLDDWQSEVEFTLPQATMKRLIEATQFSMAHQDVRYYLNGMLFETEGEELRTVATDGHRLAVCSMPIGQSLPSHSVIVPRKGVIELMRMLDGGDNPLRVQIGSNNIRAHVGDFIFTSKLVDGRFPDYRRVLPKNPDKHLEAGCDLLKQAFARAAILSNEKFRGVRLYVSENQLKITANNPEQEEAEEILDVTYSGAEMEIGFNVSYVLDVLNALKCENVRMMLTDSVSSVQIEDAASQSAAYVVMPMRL

B1: E. coli NAD+-dependent DNA ligase (E. coli LigA), P15042 1-671 (enzyme)
chain: MESIEQQLTELRTTLRHHEYLYHVMDAPEIPDAEYDRLMRELRELETKHPELITPDSPTQRVGAAPLAAFSQIRHEVPMLSLDNVFDEESFLAFNKRVQDRLKNNEKVTWCCELKLDGLAVSILYENGVLVSAATRGDGTTGEDITSNVRTIRAIPLKLHGENIPARLEVRGEVFLPQAGFEKINEDARRTGGKVFANPRNAAAGSLRQLDPRITAKRPLTFFCYGVGVLEGGELPDTHLGRLLQFKKWGLPVSDRVTLCESAEEVLAFYHKVEEDRPTLGFDIDGVVIKVNSLAQQEQLGFVARAPRWAVAFKFPAQEQMTFVRDVEFQVGRTGAITPVARLEPVHVAGVLVSNATLHNADEIERLGLRIGDKVVIRRAGDVIPQVVNVVLSERPEDTREVVFPTHCPVCGSDVERVEGEAVARCTGGLICGAQRKESLKHFVSRRAMDVDGMGDKIIDQLVEKEYVHTPADLFKLTAGKLTGLERMGPKSAQNVVNALEKAKETTFARFLYALGIREVGEATAAGLAAYFGTLEALEAASIEELQKVPDVGIVVASHVHNFFAEESNRNVISELLAEGVHWPAPIVINAEEIDSPFAGKTVVLTGSLSQMSRDDAKARLVELGAKVAGSVSKKTDLVIAGEAAGSKLAKAQELGIEVIDEAEMLRLLGS
modifications: here or on the partner: OregonGreen488 label (residue not stated)
With B1, the Kd was determined as 42.5 nM.

The record behind these values is PMC3335792.
